Source: IntAct's records for PubMed 31515488

B1: Calcium-binding and coiled-coil domain-containing protein 2 (Homo sapiens), Q13137 (parent)
chain: MEETIKDPPTSAVLLDHCHFSQVIFNSVEKFYIPGGDVTCHYTFTQHFIPRRKDWIGIFRVGWKTTREYYTFMWVTLPIDLNNKSAKQQEVQFKAYYLPKDDEYYQFCYVDEDGVVRGASIPFQFRPENEEDILVVTTQGEVEEIEQHNKELCKENQELKDSCISLQKQNSDMQAELQKKQEELETLQSINKKLELKVKEQKDYWETELLQLKEQNQKMSSENEKMGIRVDQLQAQLSTQEKEMEKLVQGDQDKTEQLEQLKKENDHLFLSLTEQRKDQKKLEQTVEQMKQNETTAMKKQQELMDENFDLSKRLSENEIICNALQRQKERLEGENDLLKRENSRLLSYMGLDFNSLPYQVPTSDEGGARQNPGLAYGNPYSGIQESSSPSPLSIKKCPICKADDICDHTLEQQQMQPLCFNCPICDKIFPATEKQIFEDHVFCHSL
B2: Syntenin-2 (Homo sapiens), Q9H190 (parent)
chain: MSSLYPSLEDLKVDQAIQAQVRASPKMPALPVQATAISPPPVLYPNLAELENYMGLSLSSQEVQESLLQIPEGDSTAVSGPGPGQMVAPVTGYSLGVRRAEIKPGVREIHLCKDERGKTGLRLRKVDQGLFVQLVQANTPASLVGLRFGDQLLQIDGRDCAGWSSHKAHQVVKKASGDKIVVVVRDRPFQRTVTMHKDSMGHVGFVIKKGKIVSLVKGSSAARNGLLTNHYVCEVDGQNVIGLKDKKIMEILATAGNVVTLTIIPSVIYEHMVKKLPPVLLHHTMDHSIPDA
partner: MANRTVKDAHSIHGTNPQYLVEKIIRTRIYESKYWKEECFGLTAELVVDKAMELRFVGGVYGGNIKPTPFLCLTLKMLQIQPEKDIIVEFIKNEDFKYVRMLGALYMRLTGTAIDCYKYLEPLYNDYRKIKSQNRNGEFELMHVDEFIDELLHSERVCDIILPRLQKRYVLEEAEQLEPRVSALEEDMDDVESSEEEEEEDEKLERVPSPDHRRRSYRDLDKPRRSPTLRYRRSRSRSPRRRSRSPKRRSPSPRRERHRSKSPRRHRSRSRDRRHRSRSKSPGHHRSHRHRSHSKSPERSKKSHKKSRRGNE
B3: Vacuolar protein sorting-associated protein 37B (Homo sapiens), Q9H9H4 (parent)
chain: MAGAGSEARFAGLSLVQLNELLEDEGQLTEMVQKMEETQNVQLNKEMTLASNRSLAEGNLLYQPQLDTLKARLTQKYQELQVLFEAYQIKKTKLDRQSSSASLETLLALLQAEGAKIEEDTENMAEKFLDGELPLDSFIDVYQSKRKLAHMRRVKIEKLQEMVLKGQRLPQALAPLPPRLPELAPTAPLPYPAPEASGPPAVAPRRIPPPPPPVPAGRLATPFTAAMSSGQAVPYPGLQCPPLPPRVGLPTQQGFSSQFVSPYPPPLPQRPPPRLPPHQPGFILQ
B4: Cyclic AMP-dependent transcription factor ATF-4 (Homo sapiens), P18848 (parent)
chain: MTEMSFLSSEVLVGDLMSPFDQSGLGAEESLGLLDDYLEVAKHFKPHGFSSDKAKAGSSEWLAVDGLVSPSNNSKEDAFSGTDWMLEKMDLKEFDLDALLGIDDLETMPDDLLTTLDDTCDLFAPLVQETNKQPPQTVNPIGHLPESLTKPDQVAPFTFLQPLPLSPGVLSSTPDHSFSLELGSEVDITEGDRKPDYTAYVAMIPQCIKEEDTPSDNDSGICMSPESYLGSPQHSPSTRGSPNRSLPSPGVLCGSARPKPYDPPGEKMVAAKVKGEKLDKKLKKMEQNKTAATRYRQKKRAEQEALTGECKELEKKNEALKERADSLAKEIQYLKDLIEEVRKARGKKRVP
B5: Isoform Long of Autophagy protein 5 (Homo sapiens), Q9H1Y0-1 (parent)
chain: MTDDKDVLRDVWFGRIPTCFTLYQDEITEREAEPYYLLLPRVSYLTLVTDKVKKHFQKVMRQEDISEIWFEYEGTPLKWHYPIGLLFDLLASSSALPWNITVHFKSFPEKDLLHCPSKDAIEAHFMSCMKEADALKHKSQVINEMQKKDHKQLWMGLQNDRFDQFWAINRKLMEYPAEENGFRYIPFRIYQTTTERPFIQKLFRPVAADGQLHTLGDLLKEVCPSAIDPEDGEKKNQVMIHGIEPMLETPLQWLSEHLSYPDNFLHISIIPQPTD

Variants of: B1
Settings: with leg8_human LGALS8, O00214

Variant | effect of a mutation on the interaction
E222K | with no effect
T273A | with no effect

Variants of: B1
Settings: with smrd1_human SMARCD1, Q96GM5

Variant | effect of a mutation on the interaction
E222K | with no effect

Variants of: B1
Settings: with tcl1a_human TCL1A

Variant | effect of a mutation on the interaction
E222K | with no effect
T273A | with no effect

Variants of: B1
Settings: with dus12_human DUSP12, Q9UNI6

Variant | effect of a mutation on the interaction
T273A | with no effect

Variants of: B2
Settings: with pr38a_human PRPF38A

Variant | effect of a mutation on the interaction
V182M | with no effect
G242R | disrupting interaction strength
G225R | disrupting interaction strength

Variants of: B3
Settings: with vps28_human VPS28, Q9UK41

Variant | effect of a mutation on the interaction
M151I | with no effect

Variants of: B4
Settings: with ldoc1_human LDOC1, O95751

Variant | effect of a mutation on the interaction
P258A | with no effect
T137S | with no effect
E322D | disrupting interaction strength
A324V | with no effect

Variants of: B4
Settings: with cc106_human CCDC106, Q9BWC9

Variant | effect of a mutation on the interaction
P258A | with no effect
E322D | disrupting interaction strength
A324V | with no effect

Variants of: B4
Settings: with fbw1a_human BTRC

Variant | effect of a mutation on the interaction
P258A | with no effect
T137S | with no effect
E322D | disrupting interaction strength
A324V | with no effect

Variants of: B4
Settings: with tthy_human TTR

Variant | effect of a mutation on the interaction
T137S | with no effect

Variants of: B4
Settings: with cc106_human CCDC106, Q9BWC9
Remark: another data set of the same source

Variant | effect of a mutation on the interaction
A324V | disrupting interaction strength

Variants of: B5
Settings: with tera_human VCP

Variant | effect of a mutation on the interaction
K58M | disrupting interaction strength

Variants of: B5
Settings: with keap1_human KEAP1, Q14145

Variant | effect of a mutation on the interaction
K58M | with no effect
